The text below walks through data of the NTF2 design screens of Basanta et al. (2020).

The series can be described thus: protease stability score; higher = more stable; yeast display proteolysis, trypsin and chymotrypsin.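 Note: relative to predicted unfolded state with 0 unfolded-like and 1 meaning tenfold more protease.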
As for “SEEDHHADEFRRIMYEIFETGDEKKFEDLFDPNVRWEQGDKHTHGMETATRDMLDLERRLGVDHIKYKDIRFELVDGRMIVYIIGTIYINGRPRHLHIEIIVSKINGRWFVENVRMKVE”, the protease stability score worked out at 2.14.
For the sequence “SEEDHHTERIVEEFIEAERTGDEDHLLELIDPHVRVDVNGVELHGREELYKFWRDWLTKFKNARIEIRHVNNQGDKSTVLVLRRINGVDLETHVKWVFVNGKLKSITIRLN”, the protease stability score came out at 1.49.
Consider “SEEDHIMEELARIFWKLMTTGDFDTLEHLMDPHTRLEVNGRIFVGREASEELWRFYKNVRTEIEDVKAQGDKNHIKGHQKFNGREKTVHIHLTIVDGRLKSMSIKEH”, for which the protease stability score is 2.23.
In turn, “SEEDHLVDLMLKFLIESLKTGDEKTLRKLVDPNDKVVFNGRELHGRRALEYWLERFDHAHRFHIEDFTVQGDYMIVRVKLDGHVDGVRMETTIHLILVKYDGRWFVKMTIFN” came in with a protease stability score of 1.26.
Take “SEEDHRAKHIFHLFLHWFLTGDWEIFEHYADPRMRTLVNGKNFHGWEETVKFLDHIFKELRVHHIHVDHLEVQGDKYHFEVRVDREYNGRREITIMYIHFLIFNGKVKSILIIIH”: the protease stability score was 1.08.
Next, “SEEDKATEKFLRELSEWHRTGDEEHFVRNLDPHVRVDIDGVELHGREEVERHLRKRWEKLGVDRFDSELRFKHIHVQGDKIEIHIRIILDINGVHRNVDVEIIALKVNGRWLIQSYHIR”: 2.24.
Sequence “SEEDKEFEDLIKFWIHLLETGDFDTLRDLADPHVRVTIDGRDLHGREILLTFWEKVKNIKLDLKSIRVINGVVIMHGDTNFDGKRSHVELHIKKINGRWYITEFRIE” yielded a protease stability score of 2.25.
“SEEDKELEEFFRMYIHAARTGDWHTLTRLLDPNVLLMVNGRETHGMDKVKELLKRLGVDYINIEHVEVHRMDFQGDKLRMDTTEDGFVNGVRTHRSVHHILVKVDGRWYIESVHIK”: the protease stability score is 2.02.
On to “SEEDKEREEWLHLLKHSLETGDEQALSRMADPHVRLVVGDKELHGREDYERHWREFLERFPNVTTEVRLRRVEIYGDKIRIDTELRIHVGDKHHSLRVDLIMVKVDGRWFMKEIRIK”, for which the protease stability score worked out at 1.21.
Next, “SEEDKESEEAFKIAKELLETGDEDLHKHLFDPNARLVVGDKHHHGRELLVKFWSDFGIDHIEIHDIKLVNGRLDTDTTVRFNGRTLKMRIIIIKVNGKWEIKSMTVH”: 0.667; “SEEDKETKIALEISEKILETGDWEELSKNLDPDARFTFENRTHVGREEVSELLLKLIKEMGVNHVNIEDNDLQGDKIILIVEVRVGDKRVNLEIIAVKVNGRWRIHSIHERHE”: 0.884.
As for “SEEDKEVKFFMERLNHLLLTGDEELIMEMLDPNARMTINGVDTHGRETLSKLWTDKLRHLRLKQIHIHDWRSINGRADNKGHERGFVGDKEDNWESELLFVFVNGRLKSISVHLR”, the protease stability score was found to be 1.21.
As for “SEEDKHASKLADLVVEMWMTGDEEKLRHLADPDVKLHIEFNGVNRNHHGRDVMIEVMQRIREEIRIHDIKIHNWHTINGRWHIDSIVDGKFNGRRHETRTEVILEVIDGRIKVISFIFQ”, the protease stability score came to 1.07.
Next, “SEEDKHHETLARLIIEALTTGDEESLMHLMDPNARIQIGDKDNHGWRSLHIHHRELGIDHKEIRVREVRFVNGKIHIDSQVHFHFNGVTFDVRTHIILVVINGKLTKMWVIIG”: 0.363; “SEEDKHLLHLMHLFLHWFDTGDEEQFWHYADPHVRMSVNGVHLHGRETVMRQISRTLKEWRVDDRRIHDSHTVNGVVHQDGRVDGEFNGKRDTREYYLIIVIFNGRIHSVEIHIK”: 1.46; “SEEDKHLRKMAQDILEWLFTGNWKDFFDNLDPNYRVEWNGKERIGRDLTRRMLETIRREMRLHDIKIHHFTAIDGVIHIDGSEYIHVDGVTTEVKTHIHIVIFNGRIKRIEFHDH”: 1.48.
On to “SEEDKHTEKLVRELWHAFETGDEDFILDMADPDVKFDFNGRKNVGREEFSRIWEDIFRRFKNIQLELTSITFQGHKVHTKGRTRINGKHHELIVHVVIVNGRLESLTIIIN”, for which the protease stability score is 1.49.
In turn, “SEEDKIALEILEMTKKLWDTGDEELMVDLVDPHVKVDWDGRERHGREAVEFFFRSIIEKVKNLTIRLTDFRVINGRIEIDSTLKFNGKTLEVRIISTKIDGQWYIESISFR” had a protease stability score of 1.38.
Next, “SEEDKIVHEMMERLLKNWQTGNWEEIEKLFDPNAKLLVDGVELHGREEMSRHWEEKLNQIDHLRIRIRDYRYFDGRLRVEGEEIHYVNGKDITREVEIRLQVINGVVESIEFHRR”: 1.42.
Take “SEEDKKVEEAIKYLYSFLKTGDEHEVEDMIDPHVRIDVNGKNVHGWEEAFRWTVEHMKKLGVERFEVEIKDVHKQGNYVRVLGHSRFNGKEYEIEIILIKVNGRWIIKSHRIH”: the protease stability score is 1.64.
“SEEDKLAREIFEETIRILLTGDEEKLEELLDPRVRVHIHIGDKRIDLHGREEMSKWLHEIRIEHFHIDDLKVQGDKLHADTHEVVRIGDKRIETRTEWELVVVNGRLKELHIRVK” had a protease stability score of 1.74.
Next, “SEEDKLIKDAFTEIHTWIKTGNEEYLERLVDPHVKIIINGRELHGMEFLHEELKRFDHLHLRDHHLESFDIQGNKIVLEGTNDIEIKWNGVRIRTELEIHFFVEKVNGKWIIREFVIV”: 1.26.
With “SEEDKLMRDIERLVLEWLETGDEDALKKMLDPHVRVEFNGVERIGMDELARLLKHLRFDHIHIRNSRVINGVIHIDGHIDGTINGRRVRHDLEVRIIIVNGRFKEIILIDR”, the protease stability score stood at 1.21.
The same measure for “SEEDKLSEELARRWIHLFETGDEETILHLADPHMKYILIINGRNEIHHGMKMMSEELKRIKGARFEIKRIEVQGDKVHLDVRIRIDGVEIDSEIDLKIVDGRLRELKVTIK”: 2.07.
Next, “SEEDKMVEDWLREWIELHLTGDFEQWESLFDPNTRSRAHVGDKRFESHGREQVVEVRHEIKREMRITDIDDKHIRVFNGRADLIGFMRGDINGRHVRLEIHVILVIVNGKRKEEEVRIH”: 0.155; “SEEDKSFEIMFKLFKEASDTGDEKTLSELFDPDTRIDIGDKHLHGREEAVRMWRELRIHDIRVKSFDIIGNKIHLDTHVNGLVNGRLHRTDSKIILLKVNGQWRIESYHVD”: 1.77; “SEEDKTALEMFERLIHAWLTGDEDEMRRMADPHVKIDKEFENHEVQFHGREDFVRWVIEVRDRIDHLEIRNHSIRTWNGVVHVHTTLFLNYDGKLFILRTEFRLFVIDGRLREERFMLH”: 0.282.
Next, “SEEDKWAEIMARLMSYLNHTGDEENFDRLADPDVRMDINGREVHGRETFNRYLRHIRIRFHDLISRDSTEVNGVLIIHGESDITIEYDGVRLRDHPKSVFYVLKINGRWRIKSISFH”: 1.41; “SEEDKWIKDMTHLFLHWFLTGDEEIFNHFADPNVRVQYGDKWRVGRERVSEFNEFVLRELRFKEIRLKNLSTQGEKATSIVRVDVQFDGKEIDIEIRIHIVVVDGVLKQVEIRET”: 0.795.
The sequence “SEEDKYAKLVIRLLEEMIRTGDEESSIRLADPHARVNINGKDMHGREEFTKWIRQFDVVRDFELKDSDYQGDFIFVDGVLDGEVGDKRMRTKVEIIIFKFNGKWRTKEVWVR” returned a protease stability score of 1.38.
For the sequence “SEEDQHIEEALRRISKVIHTGDEDKLEELVDPHVRLDVGDKVFHGWEDFVRFMTELRFHHMHVTHLETQGDKVRVELSLDREQGDKRKEMHAHIVLEKIDGKWVVREVEMR”, the protease stability score amounted to 1.35.
The same measure for “SEEDQLLHHQMETWRHMIHTGDEELLERFLDPTVRIEYDGQEHHGRETAAHLFRELAEKLGIEFEDLEIHETEIQGDKIRVDTILYVDINGRKLVFRTHTVWEKINGRWILREIKIE”: 0.043; for “SEEDRDLHESAKLSEEIEDTGDEHMIHKQADPNVRLDYNGREFHGREMFSKMMIEWFTKLGVDHVHRKEMRIQGDWIHLHFEVRVGDKRHEVHVVALKVNGRWLHHSFEVHER”: 1.16.
Next, “SEEDRDMEHVINVLRHLMVTGDEEELTKMADPTAYSDVNGVELHGREAFSRIVKLMGVKHVEIRDFTVQGDKVDVDGETRFENHHRFSIIHLRKINGRWYIERMRLE”: 0.771.
“SEEDRDRHKALELIRESSRTGNEELTSRLADPHVRLVFNGRDVHGREEMVRYMHEFGIDHLHIDRLHVQGDKIHIEGSNDWNGVVTELHVLMVKVNGRWRIREVEWR”: the protease stability score was 1.23.
The same measure for “SEEDRDVRHFLEVWWHRVQTGDEDSLHELADPRMRVDINGRILHGREHISRFMIELTESFGATPEDFQIEHVDTVGNKVHIKTRIFIRQGNFNLIRDTEMIVLKVDGRWLLTEVRVR”: 2.6.
Sequence “SEEDRFAIEVSEELSRAIETGDEDRLRHLLDPNVKVNVGDKTLHGREEYLHYLRELLRDLGVDVIHIEFQDVRFIGDKLVIDGSLDLRVGDKVIEHKITIIIWKFDGRWVSHSEHIH” showed a protease stability score of 1.25.
Take “SEEDRFLYEFARTILHLFETGNEEIFHKLADPHVRLHVNGVDNVGWERSYKFFHEEVRELRFHTWRIRDHRTFENRAHLDIEVDTEFNGVRLHLKSTLDVVVVNGRLKFFHIKQE”: the protease stability score was determined as 0.424.
Sequence “SEEDRILELIARMMFNLWLTGNEEELERLVDPNARSVINGQEVHGMHETKELLRRLKEHIRIDDMRISRIEVYNGRAIVDLSVDGEFNGRRDITRVEIVIYVVDGKVRSIEFHRK” displayed a protease stability score of 1.78.
The same measure for “SEEDRLHEEWIEESFKIWETGDEERFWKMVDPEYLFRLDIDGVHLESHGRENAREHFREQLSRLGIKYLDLHEIHLQGNKAILDVRVNFNGQERHVIIRLLIIDGRIKKREIEIR”: 1.41.
Sequence “SEEDRLLEELLKLYLHLEATGNEDRFAELVDPDARMDFNGREHHGREEIRHHMVKHWKDLGVKHLHIDRFRYFNGVLDVRGHLKVNGREKDVVWILEIIDGRIHEIRHHLH” showed a protease stability score of 1.28.
Next, “SEEDRSSREAVEIYIWIIETGDEHLMEEFLDPHVRSHQGEFHSHGREVAHVYVKKFKNLKVRVREVRTQGDKVIIISEMRIGDFRLELTIIIWKYNGKWIVQEVDIK”: 1.67; “SEEDRYDKKMLERLNEAEHTGDWRLFLRQADPDPRTVIGDKELHGWEILEEFLLKIHEQYKGMRFEYRDIDVQGDKIRIEYDLFINGKFTETILIADKVNGKWIIKSHELR”: 0.898.
For “SEEDSKAMEMLDEWLKWLLTGNEHIFRTLADPHVRLTIGDKEHVGREHVIRMFHELRIDHFHVHDVRTQGDKAFMSGRMEGTVDGKKEDTDIRIFLVIVNGRIKHIELRIH”, the protease stability score is 1.52.
The same measure for “SEEDTERTERFELMLHSWLTGDEEFWEKNADPNARLKLLVNGRDIRFHGREMVSEAIRKTLDDLGVDHRRIEHKEVQGDKVHIHQKIDVGDKELKVRIVVVVINGRNEMIIVEVI”: 2.26; for “SEEDTMAKTLTKMEIELLRTGDEDLLWRLADPNVKLHINGRDLHGRETFEEWMKRFLEQVDVLRIEHREIRTAEGHLELDMHVDSYFDGVRFTTRLIVEVIKVDGRWFIRFREEQ”: 1.21; for “SEEDVLHHELARIYWRDFVTGDEDSLRRLMDPEAKVNFDGRENHGREFYEEILRLFLEKFRGVRFEEHRSRFIGEFTHIDVRMHIDGKTHSLKVLVTVVNGKVHSIHIQLR”: 1.26.
